Columns and labels:
[1] = biological target: T1, soluble form of HEPSIN comprising the entire extracellular domain (human HEPSIN Arg45-Leu417, His-tagged) (human, UniProt P05981 45-417); test: Ki app, enzyme inhibition assay with chromogenic substrate S2366, fit to the tight binding inhibition equation
T1 construct: range 45-417; Under reducing SDS-PAGE it runs as a 20 kDa A-chain and a 30 kDa B-chain; also called soluble HEPSIN; recombinant soluble HEPSIN; not shown: His tag
Method: (§1) A soluble form of the bi-Kunitz inhibitor HAI-2 was used as a stop reagent for the pro-uPA activation assay. […] HAI-2 was incubated with 0.5 nM HEPSIN or 10 nM uPA for 30 min in Hepes buffer (20 mM Hepes, pH 7.5, 150 mM NaCl, 5 mM CaCl₂, 0.01% Triton X-100) at room temperature. The chromogenic substrates S2366 (for HEPSIN) or S2444 (for uPA) were added at a concentration corresponding to their respective Kₘ values, which were determined in separate experiments. After substrate addition, the increase in absorbance at 405 nm was measured on a kinetic microplate reader (Molecular Devices, Sunnyvale, Calif.). The Kᵢ^app values were determined by fitting the data to the equation for tight binding inhibition (22,23).

[2] = biological target: T2, uPA (high molecular weight form) (UniProt P00749 21-431, limits assumed); test: Ki app, enzyme inhibition assay with chromogenic substrate S2444, fit to the tight binding inhibition equation
T2 construct: Bought reagent
Method: as §1

T1 sequence (P05981 45-417 limits assumed): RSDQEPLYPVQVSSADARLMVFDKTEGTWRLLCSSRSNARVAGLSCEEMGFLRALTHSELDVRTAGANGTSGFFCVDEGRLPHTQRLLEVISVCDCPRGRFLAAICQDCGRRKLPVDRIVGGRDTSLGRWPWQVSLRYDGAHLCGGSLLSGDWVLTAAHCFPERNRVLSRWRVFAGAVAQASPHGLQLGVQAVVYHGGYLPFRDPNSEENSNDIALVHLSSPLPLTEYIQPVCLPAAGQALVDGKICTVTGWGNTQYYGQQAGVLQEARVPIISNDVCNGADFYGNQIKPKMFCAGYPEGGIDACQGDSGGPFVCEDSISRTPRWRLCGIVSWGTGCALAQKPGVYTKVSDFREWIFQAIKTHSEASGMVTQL

B1: soluble form of hepatocyte growth factor activator inhibitor-2 (HAI-2) (other, UniProt O43291 28-197, looked up)
chain: ADRERSIHDFCLVSKVVGRCRASMPRWWYNVTDGSCQLFVYGGCDGNSNNYLTKEECLKKCATVTENATGDLATSRNAADSSVPSAPRRQDSEDHSSDMFNYEEYCTANAVTGPCRASFPRWYFDVERNSCNNFIYGGCRGNKNSYRSEEACMLRCFRQQENPPLPLGSK
notes: Called a soluble form
[1]
  Ki: 0.26 nM
[2]
  Ki: > 1000 nM

Source: patent publication US20100021474A1 (Genentech, published 2010)
